B1: GST-SURF4^49-60 [human] / CW peptides (KRRHPKKC) [not stated (human or mouse cDNA cloned)] (parent complex)
chain 1: SEQRDYIDTTWN
chain 2: KRRHPKKC

Variants of: B1
Experiment: peptide pull-down (peptides on thiopyridone Sepharose 6B), anti-GST immunoblot quantification; n = 3, mean ± SD; parent: 1; read off a plot

Variant | ratio to parent
chain 2 K1A, chain 2 R2A, chain 2 R3A, chain 2 K6A, chain 2 K7A | ~0.03

Reference: publication PMC8931250, “A SURF4-to-proteoglycan relay mechanism that mediates the sorting and secretion of a tagged variant of sonic hedgehog” (Proceedings of the National Academy of Sciences of the …, 2022)
